{"source": "patent US7144986B2", "about": "“Polypeptides comprising IL-6 ligand binding receptor domains” (The United States of America as represented by the …, priority 1999, dated 2006)", "data": [{"biological_target": "recombinant human IL-6 (Homo sapiens, UniProt P05231)", "sequence (P05231 30-212)": "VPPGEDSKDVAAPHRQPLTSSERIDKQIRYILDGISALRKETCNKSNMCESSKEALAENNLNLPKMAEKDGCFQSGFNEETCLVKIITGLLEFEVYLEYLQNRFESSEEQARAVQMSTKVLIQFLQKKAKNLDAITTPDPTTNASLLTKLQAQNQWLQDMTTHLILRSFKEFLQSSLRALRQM", "assay": "Binding of radioiodinated recombinant human IL-6 to synthetic peptide arrays in 96-well microtiter plates", "settings": "Example 1, domain I peptides (IL-6 receptor residues 66–86): truncations and alanine replacements; radiolabeled IL-6 remaining after wash", "protocol": "(§1) Synthetic peptide arrays were constructed in 96-well microtiter plates in accordance with the method set forth in WO 91/02714 (Saxinger), and used to test the binding of recombinant human IL-6 that had been labeled with radioactive iodine (radiolabeling by standard methods). After incubating the radiolabeled IL-6 ligand in a well with each synthetic peptide, a washing step was performed to remove unbound label, and the relative level of radioactivity remaining in each well of the plate was evaluated to determine the relative affinity of each peptide for IL-6 ligand.\n(§2) Each of the four binding domains was analyzed in detail, which is set forth in these examples. First, serial truncations (or nested truncations) were performed from each end of the peptides to determine the location of the critical binding residues within each domain. Second, each amino acid residue in the critical regions of each domain were serially replaced by an alaninyl residue to indicate whether the side-chain of the residue at each particular location is likely to be essential or important to the mechanism of binding.\n(§3) This example employs essentially the same techniques as Examples 1–4 except that fragments of the β-chain of the IL-6 receptor are used. As is known in the art, the β-chain is shared by multiple receptors. Thus, the identified fragments here are effective inhibitors of a multiplicity of binding reactions in addition to the IL-6 ligand:IL-6 receptor interaction.", "units": {"Counts/minute bound": "Counts/minute"}, "values": [{"substance": "AAGSHPSRWAGMGRRLLLRSV [Peptide A1]", "Counts/minute bound": 10739}, {"substance": "AAGSHPSRWAGMGRRL [Peptide A6]", "Counts/minute bound": 1753}, {"substance": "AAGSHPSRWAGMGRRLLLRSV [Peptide A17]", "Counts/minute bound": 10884}, {"substance": "AAGSHPSRWAGMGRRLLLRSV [Peptide A33]", "Counts/minute bound": 10213}]}, {"biological_target": "recombinant human IL-6 (Homo sapiens, UniProt P05231)", "assay": "Binding of radioiodinated recombinant human IL-6 to synthetic peptide arrays in 96-well microtiter plates", "settings": "Example 2, domain II peptides (IL-6 receptor residues 136–156): truncations and alanine replacements", "protocol": "as §1, §2, §3", "units": {"Counts/minute bound": "Counts/minute"}, "values": [{"substance": "PRSTPSLTTKAVLL [Peptide B8]", "Counts/minute bound": 1846}, {"substance": "TKAVLLVRKFQNS [Peptide B26]", "Counts/minute bound": 5226}, {"substance": "PRSTPSLTTKAVLLVRKFQNS [Peptide B33]", "Counts/minute bound": 11699}, {"substance": "TKAVLLVRKFQNS [Peptide B25]", "Counts/minute bound": 5753}, {"substance": "PRSTPSLTTKAVLLVRKFQNS [Peptide B17]", "Counts/minute bound": 12347}, {"substance": "PRSTPSLTTKAVLLVRKFQNS [Peptide B1]", "Counts/minute bound": 10790}]}, {"biological_target": "recombinant human IL-6 (Homo sapiens, UniProt P05231)", "assay": "Binding of radioiodinated recombinant human IL-6 to synthetic peptide arrays in 96-well microtiter plates", "settings": "Example 3, domain III peptides (IL-6 receptor residues 246–266): truncations and alanine replacements", "protocol": "as §1, §2, §3", "units": {"Counts/minute bound": "Counts/minute"}, "values": [{"substance": "SSFYRLRFELRYRAERSKTFT [Peptide C1]", "Counts/minute bound": 14571}, {"substance": "SSFYRLRFELRYRAERSKTFT [Peptide C33]", "Counts/minute bound": 14610}, {"substance": "SSFYRLRFELRYRAERSKTFT [Peptide C17]", "Counts/minute bound": 15127}]}, {"biological_target": "recombinant human IL-6 (Homo sapiens, UniProt P05231)", "assay": "Binding of radioiodinated recombinant human IL-6 to synthetic peptide arrays in 96-well microtiter plates", "settings": "Example 4, domain IV peptides, D11–D57, separate experiment: truncations and alanine replacements", "protocol": "as §1, §2, §3", "units": {"Counts/minute bound": "Counts/minute"}, "values": [{"substance": "GGSLAFGTLLCIAIVLRFKKT [Peptide D11]", "Counts/minute bound": 20349}, {"substance": "GGSLAFGTLLCIAIVLRFKKT [Peptide D43]", "Counts/minute bound": 20385}, {"substance": "GGSLAFGTLLCIAIVLRFKKT [Peptide D27]", "Counts/minute bound": 21945}, {"substance": "LRFKKT [Peptide D42]", "Counts/minute bound": 1958}]}, {"biological_target": "recombinant human IL-6 (Homo sapiens, UniProt P05231)", "assay": "Binding of radioiodinated recombinant human IL-6 to synthetic peptide arrays in 96-well microtiter plates", "settings": "Example 5, fragments of the β-chain of the IL-6 receptor", "protocol": "as §1, §2, §3", "units": {"Counts/minute bound": "Counts/minute"}, "values": [{"substance": "LTCNILTFGQLEQNVYGITIISGL [Peptide E11]", "Counts/minute bound": 1816}, {"substance": "SDKAPCITDWQQEDGTVHRTYLRG [Peptide E47]", "Counts/minute bound": 2079}]}, {"biological_target": "recombinant human IL-6 (Homo sapiens, UniProt P05231)", "assay": "Binding of radioiodinated recombinant human IL-6 to synthetic peptide arrays in 96-well microtiter plates", "settings": "receptor sequence taken 21 amino acid residues at a time", "protocol": "as §1, §2, §3", "values": [{"substance": "GGSLAFGTLLCIAIVLRFKKT [Peptide D5]", "Initial screening of IL-6 receptor primary sequence for binding of IL-6 ligand": "active binding sequences"}, {"substance": "SSFYRLRFELRYRAERSKTFT [Peptide C1]", "Initial screening of IL-6 receptor primary sequence for binding of IL-6 ligand": "active binding sequences"}, {"substance": "AAGSHPSRWAGMGRRLLLRSV [Peptide A1]", "Initial screening of IL-6 receptor primary sequence for binding of IL-6 ligand": "active binding sequences"}, {"substance": "PRSTPSLTTKAVLLVRKFQNS [Peptide B1]", "Initial screening of IL-6 receptor primary sequence for binding of IL-6 ligand": "active binding sequences"}]}]}
